Values belong to the binder of their own block, whether it stands above or below them. No end group written: not given here. *: point of attachment. Biotin = O=C1N[C@H]2[C@H](CS[C@H]2CCCCC(=O)*)N1
How the values were obtained:
M62A = molecular target: T1, M62A (C-terminal Lys-biotin); test: alanine-scan ELISA, streptavidin-immobilized biotin peptide [cont.]
T1 construct: alanine-scan peptide; also called Biotin PSGL-1(42-62) M62A peptide; 62M
T1 peptide: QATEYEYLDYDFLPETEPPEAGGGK

Q42A = molecular target: T2, Q42A (C-terminal Lys-biotin); test: as above
T2 construct: alanine-scan peptide; also called Biotin PSGL-1(42-62) Q42A peptide; 42Q
T2 peptide: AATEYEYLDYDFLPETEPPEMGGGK

P59A = molecular target: T3, P59A (C-terminal Lys-biotin); test: as above
T3 construct: alanine-scan peptide; also called Biotin PSGL-1(42-62) P59A peptide; 59P
T3 peptide: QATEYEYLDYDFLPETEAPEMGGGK

[1] = molecular target: T4, Biotin PSGL-1(42-62) F53A peptide (C-terminal Lys-biotin); test: as above
T4 peptide: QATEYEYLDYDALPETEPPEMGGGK

P60A = molecular target: T5, P60A (C-terminal Lys-biotin); test: as above
T5 construct: alanine-scan peptide; also called Biotin PSGL-1(42-62) P60A peptide; 60P
T5 peptide: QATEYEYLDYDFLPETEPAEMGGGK

[2] = molecular target: T6, Biotin PSGL-1(42-62) D50A peptide (C-terminal Lys-biotin); test: as above
T6 peptide: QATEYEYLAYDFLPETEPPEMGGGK

[3] = molecular target: T7, Biotin PSGL-1(42-62) peptide, unmodified (human, C-terminal Lys-biotin); test: ELISA, streptavidin-immobilized biotin peptide [cont.]
T7 construct: Residues 42-62 followed by GGGK-biotin; also called WT; wild-type
T7 peptide: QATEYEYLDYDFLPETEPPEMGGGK
Experimental: (§1) A typical ELISA experiment involved binding of a single concentration or serially diluted mAb in assay buffer (3% BSA in PBS containing 0.05% Tween®20, pH 7.4) onto BSA blocked high binding microtiter plate half-wells (Corning Cat. #3690), which contained PSGL-1 protein or streptavidin-immobilized biotin peptide. After incubation for 45 min. at 37° C., the plate was washed 3 times with wash buffer (PBS containing 0.05% Tween®20, pH 7.4), and an appropriate HRP-conjugated secondary antibody added (25 ul/well) (HRP goat anti-mouse or anti-human IgG). After 45 min. incubation at 37° C., the plate was washed and antibody bound to plate-immobilized target was determined at A450 nm using HRP substrate (3,3′5,5′-tetramethylbenzidine (TMB)). For each antibody, duplicate values were averaged and assay background subtracted.

[4] = molecular target: T8, Biotin PSGL-1(56-70) peptide (human); test: as above
T8 peptide: Ac-ETEPPEMLRNSTDTTGK(Biotin)
Experimental: as §1

PSGL-1(305-320) = molecular target: T9, PSGL-1(305-320); test: as above
T9 construct: also called Biotin PSGL-1(305-320) peptide
T9 peptide: Ac-VNYPVGAPDHISVKQSK(Biotin)
Experimental: as §1

275-295 = molecular target: T10, 275-295 (N-terminal acetyl; C-terminal Lys-biotin); test: as above
T10 peptide: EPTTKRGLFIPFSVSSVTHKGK
Experimental: as §1

260-280 = molecular target: T11, 260-280 (N-terminal acetyl; C-terminal Lys-biotin); test: as above
T11 construct: also called Biotin PSGL-1(260-280) peptide
T11 peptide: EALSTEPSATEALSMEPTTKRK
Experimental: as §1

PSGL-1(120-140) = molecular target: T12, PSGL-1(120-140) (N-terminal acetyl; C-terminal Lys-biotin); test: as above
T12 construct: also called Biotin PSGL-1(120-140) peptide
T12 peptide: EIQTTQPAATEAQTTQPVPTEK
Experimental: as §1

225-250 = molecular target: T13, 225-250 (N-terminal acetyl; C-terminal Lys-biotin); test: as above
T13 peptide: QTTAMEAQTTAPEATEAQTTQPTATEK
Experimental: as §1

PSGL-1(90-110) = molecular target: T14, PSGL-1(90-110) (N-terminal acetyl; C-terminal Lys-biotin); test: as above
T14 construct: also called Biotin PSGL-1(90-110) peptide
T14 peptide: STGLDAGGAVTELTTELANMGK
Experimental: as §1

131-150 = molecular target: T15, 131-150 (N-terminal acetyl; C-terminal Lys-biotin); test: as above
T15 construct: also called Biotin PSGL-1(131-150) peptide
T15 peptide: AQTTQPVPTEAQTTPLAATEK
Experimental: as §1

245-265 = molecular target: T16, 245-265 (N-terminal acetyl; C-terminal Lys-biotin); test: as above
T16 peptide: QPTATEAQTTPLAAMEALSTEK
Experimental: as §1

145-170 = molecular target: T17, 145-170 (N-terminal acetyl; C-terminal Lys-biotin); test: as above
T17 peptide: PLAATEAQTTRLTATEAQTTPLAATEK
Experimental: as §1

63-80 = molecular target: T18, 63-80 (N-terminal acetyl; C-terminal Lys-biotin); test: as above
T18 construct: also called Biotin PSGL-1(63-80) peptide
T18 peptide: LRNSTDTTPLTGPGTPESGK
Experimental: as §1

205-230 = molecular target: T19, 205-230 (N-terminal acetyl; C-terminal Lys-biotin); test: as above
T19 peptide: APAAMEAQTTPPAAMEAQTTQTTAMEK
Experimental: as §1

165-190 = molecular target: T20, 165-190 (N-terminal acetyl; C-terminal Lys-biotin); test: as above
T20 construct: also called Biotin PSGL-1(165-190) peptide
T20 peptide: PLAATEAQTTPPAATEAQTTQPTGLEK
Experimental: as §1

75-95 = molecular target: T21, 75-95 (N-terminal acetyl; C-terminal Lys-biotin); test: as above
T21 construct: also called Biotin PSGL-1(75-95) peptide
T21 peptide: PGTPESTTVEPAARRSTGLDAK
Experimental: as §1

185-210 = molecular target: T22, 185-210 (N-terminal acetyl; C-terminal Lys-biotin); test: as above
T22 construct: also called Biotin PSGL-1(185-210) peptide
T22 peptide: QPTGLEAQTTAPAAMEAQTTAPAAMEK
Experimental: as §1

binding result (M62A): binds | binding result (Q42A): binds | binding result (P59A): binds | binding result [1]: binds | binding result (P60A): binds | binding result [2]: binds
B1: 9F9 (antibody, V domains shown)
VH: EVQLVETGGGLVQPKGSLKLSCAASGFTFNTNAMNWVRQAPGKGLEWVARIRSKSNNYATYYADSVKDRFTISRDDTQSMIYLQMNNLKTEDTGMYYCVRGGSYWYFDVWGAGTTVTVSS
VL: DVLMTQTPLSLPVSLGDQASISCRSSQSIVNSNGNTYLEWYLQKPGQSPKLLIYKVSNRFSGVPDRFSGSGSGTDFTLKISRVEAEDLGVYYCFQGSHVPWTFGGGTKLEIK
notes: Control anti-PSGL-1 mAb, recombinant; only variable domains given; also called 9F6

binding result [3]: no binding (tested: 10 nM) | binding result [4]: no binding (tested: 10 nM) | binding result (PSGL-1(305-320)): no binding (tested: 10 nM) | binding result (275-295): no binding (tested: 10 nM) | binding result (260-280): no binding (tested: 10 nM) | binding result (PSGL-1(120-140)): no binding (tested: Log M -7 (100 nM)) | binding result (225-250): no binding (tested: 10 nM) | binding result (PSGL-1(90-110)): no binding (tested: 10 nM) | binding result (131-150): no binding (tested: 10 nM) | binding result (245-265): no binding (tested: 10 nM) | binding result (145-170): no binding (tested: 10 nM) | binding result (63-80): no binding (tested: 10 nM) | binding result (205-230): no binding (tested: 10 nM) | binding result (165-190): no binding (tested: 10 nM) | binding result (75-95): no binding (tested: 10 nM) | binding result (185-210): no binding (tested: 10 nM)
B2: 18K07 (antibody, V domains shown)
VH: QIQLVQSGPELKKPGETVKISCEASGYTFTTYGMNWVKQAPGKGLKWMGWINTYSGVPTYADDFQGRFAFSVETSATTAYLQINNLKNEDAATYFCARSDDTYYGFAYWGQGTLVTVSA
VL: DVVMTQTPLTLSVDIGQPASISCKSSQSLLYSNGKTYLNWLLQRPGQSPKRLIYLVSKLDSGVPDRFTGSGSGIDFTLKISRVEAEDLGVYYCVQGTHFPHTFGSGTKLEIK
notes: From mouse immunisation; only variable domains given

From patent publication US20220396632A1 (VERSEAU THERAPEUTICS, published 2022)
